The values below come from patent US20100209490A1.

In test [1] the target is human DR5 (death receptor 5) (human) (UniProt O14763). In words: cell-based or functional assay.
The next test deals with human Fas (human) (UniProt P25445). The test is described as follows: cell-based or functional assay.

Bounds are passed on as bounds.

Sequence of human Fas (human) (P25445 26-335): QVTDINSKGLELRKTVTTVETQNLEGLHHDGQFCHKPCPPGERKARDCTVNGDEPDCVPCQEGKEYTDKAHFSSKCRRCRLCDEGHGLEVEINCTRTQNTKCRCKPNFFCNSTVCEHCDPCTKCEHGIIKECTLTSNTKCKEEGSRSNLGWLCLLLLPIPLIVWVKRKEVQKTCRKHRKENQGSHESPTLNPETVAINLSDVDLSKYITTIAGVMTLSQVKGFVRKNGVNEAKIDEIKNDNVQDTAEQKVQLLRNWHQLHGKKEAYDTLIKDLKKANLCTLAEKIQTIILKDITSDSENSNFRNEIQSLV

On to Mouse Anti-hDR5 Antibody (MAB631), for which, in test [1], the EC50 (50% cell viability), Jurkat cells, immunoliposome of Example 36 stood at 0.069 ng/mL; the EC50 (50% cell viability), Jurkat cells, immunoliposome of Example 37 was 0.089 ng/mL; the EC50 (50% cell viability), Jurkat cells, secondary antibody-cross-linked MAB631 was found to be 13.4 ng/mL; the EC50 Ab/IL, Jurkat cells, cross-linked MAB631 vs immunoliposome of Example 36 worked out at 194. In test [1], this substance had an EC50 Ab/IL, Jurkat cells, cross-linked MAB631 vs immunoliposome of Example 37 of 150; a cell viability at 0.1 ng/ml, Jurkat cells, immunoliposome of Example 36 (% cell viability) below 50; a cell viability at 0.1 ng/ml, Jurkat cells, immunoliposome of Example 37 (% cell viability) below 50; a cell viability at 10 or 1000 ng/ml, Jurkat cells, immunoliposome of Example 36 (% cell viability) below 5. This substance displayed a cell viability at 10 or 1000 ng/ml, Jurkat cells, immunoliposome of Example 37 (% cell viability) in test [1] below 5.
With Mouse Anti-hDR5 Antibody (MAB6311), in test [1], the EC50 (50% cell viability), Jurkat cells, immunoliposome of Example 38 worked out at 0.075 ng/mL; the EC50 (50% cell viability), Jurkat cells, immunoliposome of Example 39 was determined as 0.083 ng/mL; the EC50 (50% cell viability), Jurkat cells, secondary antibody-cross-linked MAB6311 turned out to be 2.39 ng/mL; the EC50 Ab/IL, Jurkat cells, cross-linked MAB6311 vs immunoliposome of Example 38 was found to be 31.9. In test [1], this substance came in with an EC50 Ab/IL, Jurkat cells, cross-linked MAB6311 vs immunoliposome of Example 39 of 28.8; a cell viability at 0.1 ng/ml, Jurkat cells, immunoliposome of Example 38 (% cell viability) below 40; a cell viability at 0.1 ng/ml, Jurkat cells, immunoliposome of Example 39 (% cell viability) below 40; a cell viability at 10 or 1000 ng/ml, Jurkat cells, immunoliposome of Example 38 (% cell viability) below 5. The cell viability at 10 or 1000 ng/ml, Jurkat cells, immunoliposome of Example 39 (% cell viability) in test [1] is below 5.
Consider Mouse Anti-hFas Antibody (DX2), for which the cell viability at 500 or 5000 ng/ml, WR19L12a cells, immunoliposome of Example 40 (% cell viability) in the test with human Fas (human) was below 20.
